From the DeepSol protein solubility set

assay: soluble on expression in E. coli; label from the status in PepcDB or PDB records

Sequence	soluble on expression in E. coli
MNVLRSGIVTMLLLAAFSVQAACTWPAWEQFKKDYISQEGRVIDPSDARKITTSEGQSYGMFSALAANDRAAFDNILDWTQNNLAQGSLKERLPAWLWGKKENSKWEVLDSNSASDGDVWMAWSLLEAGRLWKEQRYTDIGSALLKRIAREEVVTVPGLGSMLLPGKVGFAEDNSWRFNPSYLPPTLAQYFTRFGAPWTTLRETNQRLLLETAPKGFSPDWVRYEKDKGWQLKAEKTLISSYDAIRVYMWVGMMPDSDPQKARMLNRFKPMATFTEKNGYPPEKVDVATGKAQGKGPVGFSAAMLPFLQNRDAQAVQRQRVADNFPGSDAYYNYVLTLFGQGWDQHRFRFSTKGELLPDWGQECANSH	soluble
MNVNAETEDATLLLDGLLQNVAIIRFDTNKKVTYANALFAEAMGYTEEEMLQLSHPDLCFPDFVQTASYKEMWTNLLAGQKFQNKIERKNARGERVWFEATYIPIIREETVVGVAKIATDIT	not soluble
MNVTPWEVEGVIDYSKLIEEFGMQPFSEVLPEIDNPHILMRRGAIFGHRDYWRIIEAMQKKEPWAVMSGFMPSGLPHFGHKMTMDEIVWHQSAGGKAFVAIADMEAHSVRGLSWEKTRELGMLYIKSIIALGLREDAVIYFQSKSSHVKDLAFELSAEVNFSELRAIYGFNSDTSLAKMFVTAIQAADILHPQLSDFGGPKPVVVPVGADQDPHMRLTRDLAARISIFSFEPVEGGVRVRSRKGAEYLSSLRDLEFDKKIYEEHMDIFGEAEEIERAVRKIEVEIGGFAFIPPSSTYHRFTTGLTGGKMSSSKPESYISLLDPPEEGAKKVMKAFTGGRATAEEQRRLGGEPDRCVVFELYSFHLIDSDEELNQIEAECREGRLLCGKCKKMAAELVKSFLKEHQEKMEAVDLSNYTIIG	not soluble
MNVVFAVKQYISKMIEDSGPGMKVLLMDKETTGIVSMVYTQSEILQKEVYLFERIDSQNREIMKHLKAICFLRPTKENVDYIIQELRRPKYTIYFIYFSNVISKSDVKSLAEADEQEVVAEVQEFYGDYIAVNPHLFSLNILGCCQGRNWDPAQLSRTTQGLTALLLSLKKCPMIRYQLSSEAAKRLAECVKQVITKEYELFEFRRTEVPPLLLILDRCDDAITPLLNQWTYQAMVHELLGINNNRIDLSRVPGISKDLREVVLSAENDEFYANNMYLNFAEIGSNIKNLMEDFQKKKPKEQQKLESIADMKAFVENYPQFKKMSGTVSKHVTVVGELSRLVSERNLLEVSEVEQELACQNDHSSALQNIKRLLQNPKVTEFDAARLVMLYALHYERHSSNSLPGLMMDLRNKGVSEKYRKLVSAVVEYGGKRVRGSDLFSPKDAVAITKQFLKGLKGVENVYTQHQPFLHETLDHLIKGRLKENLYPYLGPSTLRDRPQDIIVFVIGGATYEEALTVYNLNRTTPGVRIVLGGTTVHNTKSFLEEVLASGLHSRSKESSQVTSRSASRR	not soluble
MNYAEICIIKRDGKREDFSISKIKNAIGKAFHASGIDNEDKLIAEITMRVISNFVSPTISVEEIQDLVEKELMKVRPEVAKKYIIYREWRNTERDRKTQMKHIMDGIVAIDKNDVNLSNANMSSHTPAGQMMTFASEVTKDYTYKYLLPKKYAEAHQLGDIHIHDLDYYPTKTTTCIQYDLDDLFERGFRTKNGSIRTPQSIQSYATLATIIFQTNQNEQHGGQAIPAFDFFMAEGVRKTFRKHLKTLTEFYIEVEGKEPGTEALKKIEEKAYAMTRKDTHQAMEGFIHNLNTMHSRGGNQVVFSSINYGTDTSPEGRMVIEELLKATIEGLGTRGEVPVFPIQIFKVKDGVSYSEEDYKKAMENFEAALEGKMEFQAPNFDLFLKACRTTAKALFPNFMFLDTPYNKNEKWDIKDPKRYRYELATMGCRTRVYENIAGEKSSLGRGNLSFTTMNMPRLAIEARIKAESLEESGKKEAIERKAKEIFIESVHALSELIAEQLYARYQYQRTALARQFPFMMGNDVWKGGGKLSPNDQVGDVLRQGTLGIGFIGGHNAMMALYGEGHAHSQKAWDTLFEAVTEMNKVADEYKQKYQLNFSVLATPAEGLSGRFTRMDRRKYGIIPGVTDNDYYVNSFHVDVKEPITITEKIKREAPFHAITRGGHITYVELDGEAQKNVKAIAKIVKVMHDEGIGYGSINHPVDTCQACGYKGVIYDKCPVCQSENIMRMRRITGYLTGDLSTWNSAKRAEERDRVKHG	not soluble
MNYEIKQEEKRTVAGFHLVGPWEQTVKKGFEQLMMWVDSKNIVPKEWVAVYYDNPDETPAEKLRCDTVVTVPGYFTLPENSEGVILTEITGGQYAVAVARVVGDDFAKPWYQFFNSLLQDSAYEMLPKPCFEVYLNNGAEDGYWDIEMYVAVQPKHH	soluble
MNYFGKLQIRFSKSFLLLLIVSSLTACVDLTGARNTYIKKEKQPAISDVPNKKSKAQNMSSKKGEVHTMLGGLGIFSKGMYTLRDKVSEKYHITAHSTMWYNAGAVSRYIIDHYYQEKDHKPIILVGHSLGANEQIKVARNLNAAGVPVALLVTVDAVSQTIVPPNVKQALNVYKPGFVPMFSGLKLRAVDPQLTKIDNINVDSIKGIKVNHFTIDKDEILQAMIMDKVDKVLVDGNKKGA	not soluble
MNYHTATITCQTTRPIDIIDITADVRSALEESGLQQGTVTLLSRHTTACLNINEREERLMQDMTTWLKRFIPKDGDWLHNIETIDGRDNAHSHLLGLFMNSSETIPFSEGQLMLGKWQSIFFIELDGPRPKREVLVHIQGELEHHHHHH	soluble
MNYHWSDHPDPNKWADCVHCGMCLEACPTYELTGHEQQSPRGRVHLIKSVAEGKLEVNEAFADPVFTCLDCRACETACPADVEVGGLIEEARGQIRQALPLSGWKLEHHHHHH	not soluble
MNYSHPISLKTLVQEDDIGVNAPIIHQSVIARLTAGLYPLYQSKKIPFEPLPETMLTEGYSSPVPDVLLYDHQTEEAKVIIEVCQNSGLKHDTSKIVKLIEDNAYGILEGFVFNYKTQQWLRYRLGDGGVATNSSFSEVLQVDLNTFV	soluble
MNYTLKNDHLNVVVDTFGAEMHSIQHDDIEYLWQADAKFWGRHAPVLFPIVGKLKNGEYRYNDKTYKMGGHGFARDNDFELIKKSADELVFELRDNEDSLNHYPFHFVFRVSYKLVDNKIRVRYEVKNEDEKFMSFGVGAHPAFNVPLKNGTFEDYQLTISPDEKRTFIPLDPPSGTLKLDERVESQVSQLPLTRALFDKDALVYTSSKEMKVSLTNKLDDHGVSLTWKNMPYFGLEHHHHHH	not soluble
MPAHPAKTDLASSAGARGGALAMESAEHSASPAIATTARLLAAMKDQPGALLPVLHAVQDELGFIPPEAVQTIAETLSLSRAEVHGVITFYPHFRSEPAGRHVLEICRAESCQAMGGDALAAHARQRLGCEFHATAADGSCTLEPVYCLGLCAQSPAVMIDGQPHARVTPAKLDRLLARAIEATP	not soluble
MPAIFTHEGKVEGVPGNYPLTAENLFRIGLALCTLWILDKEIEEPTLSIPETNFVTLALSVGFMNAGGSVNVGKGGDIKLFLQKGEIYVLEFQPLSETDIKKLESILFGRAPIPKKTGEDIGSFKC	soluble
MPAQPNPEQRDWLEALNAGDATMGESRLFERDGTWYLHVTATRDVEERSDVSAEERTPIGVDIGEASLATVCHRDGHGSPTAPELWADEGKTVRRLRKTYFTATRRLQTRGSERIVESFGDDIWDQIDDVFHRVTREVVEYAESVENPVLVLEDLTYIRESMDYGEYMNRRLHGWGFAKLHAQIRYKAVEKGIPVETVNPCNTSKECHACGEVGYRPRQATFKCTNDACWMGESQADVNGAINIADRYLSGESHSREHTDGDDSAGDGGRLTAPQDTLADATTQETLGTYAS	soluble
MPAYPREGKIIQIHSYKHNGTIHRIWQETVVLKGTPSYVIGGNNKTLVMEADGRTWVTREPAICFFHAKHWFNIIAMIREDGVYYYCNLSSPFVWDEEALKYIDYDLDIKVFPDMTYMLLDEDEYERHRREMHYPDVIDRILKNNVQKLIGWIKERKGPFAPEFIDKWYGVFQAYQT	not soluble
MPDIVNRKVEHVEIAAFENVDGLSSSTFLNDVILVHQGFPGISFSEINTKTKFFRKEISVPVMVTGMTGGRNELGRINKIIAEVAEKFGIPMGVGSQRVAIEKAEARESFAIVRKVAPTIPIIANLGMPQLVKGYGLKEFQDAIQMIEADAIAVHLNPAQEVFQPEGEPEYQIYALEKLRDISKELSVPIIVKESGNGISMETAKLLYSYGIKNFDTSGQGGTNWIAIEMIRDIRRGNWKAESAKNFLDWGVPTAASIMEVRYSVPDSFLVGSGGIRSGLDAAKAIALGADIAGMALPVLKSAIEGKESLEQFFRKIIFELKAAMMLTGSKDVDALKKTSIVILGKLKEWAEYRGINLSIYEKVRKRE	soluble
MPDPLTVSGSFSPEDVKHIGLKSIISGQIIKKYSQNQNLRSIKNVKLIIPSKAVSVDRNERTLFIPCLKLLLNYRFSNNFNKVSQIEIDNVYAYVAVVFPDEEPESFGYYIGVDRNTMGHIAVVADPDSGKVWKLGKMRYHIHQKYQNIMNRLSNSGKNKQLKAVKKREKNIVKDLNHKISRKIVDLALYNGSGIKLENLKGIRKLNSKSNGAGKGKPDQNKDKKLTCSNEYSLNNWSFLQLQQFIEYKARLRGVEVVYIDPYATSKKCSRCGHTGNRQSKRFECPCCGHVDHADVNAAFNIALTPKDTGQFSAERDAGKGRTDTPQKVLARNAFSKRAAREKASPQFAWEVCQFLTLEHHHHHH	not soluble
MPDSPAEVKTQPRSTPPSMPPPPPTSSQGATRPPSFTPHTLMNGSSHSPTAIHGAPSTPNGFSNGPATSSTASLSTQHLPPACGARQLSKLKRFLTTLQQFGSDISPEIGERVRTLVLGLVNSTLTIEEFHAKLQEATNFPLRPFVIPFLKANLPLLQRELLHCARLAKQTPAQYLAQHEQLLLDASATSPVDSSELLLEVNENGKRRTPDRTKENGSDRDPLHPDHLSKRSCTLSPAQRCSPSNGLPHPTPPPPPHYRLEDMAMAHHFRDSYRHPDPRELRERHRPLAIPGLDKKK	soluble
MPEALRTQIDELNSWIYDKVNNGVYKAGFATTQSAYDESASTVFAALSDLETILAKQRYLTGEQLTEADLRLWTTLIRFDPVYHTHFKCDKYRLSDYPNLFGFLRDIYQMPGIAETVDMAHIRHHYYRSHGTINPHGVISLGPEQDLNQPHQRDKKFVDLYLEHHHHHH	soluble
MPEMADVMQTQAGDAGAFRHFDLSRVPTPCFVVDEVAIERNLKILRDISDRSGAHVLSALKAFSMFTLAPLVRQYLGGTCASGIYEARLGREEYGGEVATFCAGYKEQDIDEILSLSNHIIFNSPAQKDRFLSRAQAAGVQVGLRINPEHSEGEIAKYDPCAPCSRLGTPVSLLTPETLKGVDGLHMHTLCEQGFEPLLRTWAAVEPKLAPYLPGLKWLNFGGGHHITRADYDRDALIDFLKSLRARHGLDVYLEPGEAVALDAGILVGEILDLPSNGMDLAITDISATCHMPDVIEAPYRPALMDEADSGHTYRLGGPSCLAGDVIGDYTWDQPLTIGQRFAFLDQAHYSMVKTNTFNGVPLPTIALWNSKTDALRIVRQFDYSDFKDRLS	not soluble
